Data taken from publication PMC9974498.
Each block holds one substance with its values, some of them ahead of it.

What was measured:
Assay in all cases: crystal structure
[1] = molecular target: recombinant C-terminal StrepII-tagged ScSbtB variant C105A+C110A (Synechocystis sp. PCC 6803)
[2] = molecular target: recombinant C-terminal StrepII-tagged SbtB from Synechocystis sp. PCC 6803 (ScSbtB), wild type (Synechocystis sp. PCC 6803)
[3] = molecular target: recombinant C-terminal StrepII-tagged ScSbtB variant Δ104 (R-loop truncated from position 104 on) (Synechocystis sp. PCC 6803)

stoichiometry N [1]: 3
Substance: recombinant C-terminal StrepII-tagged ScSbtB variant C105A+C110A (natural protein)

stoichiometry N [2]: 3
Substance: recombinant C-terminal StrepII-tagged SbtB from Synechocystis sp. PCC 6803 (ScSbtB), wild type (natural protein)

stoichiometry N [3]: 3
Substance: recombinant C-terminal StrepII-tagged ScSbtB variant Δ104 (R-loop truncated from position 104 on) (domain or fragment)
